According to IntAct's records for PubMed 18458160:

B1: KN motif and ankyrin repeat domain-containing protein 1 (Homo sapiens), Q14678-2 (parent)
chain: METRRRLEQERATMQMTPGEFRRPRLASFGGMGTTSSLPSFVGSGNHNPAKHQLQNGYQGNGDYGSYAPAAPTTSSMGSSIRHSPLSSGISTPVTNVSPMHLQHIREQMAIALKRLKELEEQVRTIPVLQVKISVLQEEKRQLVSQLKNQRAASQINVCGVRKRSYSAGNASQLEQLSRARRSGGELYIDYEEEEMETVEQSTQRIKEFRQLTADMQALEQKIQDSSCEASSELRENGECRSVAVGAEENMNDIVVYHRGSRSCKDAAVGTLVEMRNCGVSVTEAMLGVMTEADKEIELQQQTIESLKEKIYRLEVQLRETTHDREMTKLKQELQAAGSRKKVDKATMAQPLVFSKVVEAVVQTRDQMVGSHMDLVDTCVGTSVETNSVGISCQPECKNKVVGPELPMNWWIVKERVEMHDRCAGRSVEMCDKSVSVEVSVCETGSNTEESVNDLTLLKTNLNLKEVRSIGCGDCSVDVTVCSPKECASRGVNTEAVSQVEAAVMAVPRTADQDTSTDLEQVHQFTNTETATLIESCTNTCLSTLDKQTSTQTVETRTVAVGEGRVKDINSSTKTRSIGVGTLLSGHSGFDRPSAVKTKESGVGQININDNYLVGLKMRTIACGPPQLTVGLTASRRSVGVGDDPVGESLENPQPQAPLGMMTGLDHYIERIQKLLAEQQTLLAENYSELAEAFGEPHSQMGSLNSQLISTLSSINSVMKSASTEELRNPDFQKTSLGKITGNYLGYTCKCGGLQSGSPLSSQTSQPEQEVGTSEGKPISSLDAFPTQEGTLSPVNLTDDQIAAGLYACTNNESTLKSIMKKKDGNKDSNGAKKNLQFVGINGGYETTSSDDSSSDESSSSESDDECDVIEYPLEEEEEEEDEDTRGMAEGHHAVNIEGLKSARVEDEMQVQECEPEKVEIRERYELSEKMLSACNLLKNTINDPKALTSKDMRFCLNTLQHEWFRVSSQKSAIPAMVGDYIAAFEAISPDVLRYVINLADGNGNTALHYSVSHSNFEIVKLLLDADVCNVDHQNKAGYTPIMLAALAAVEAEKDMRIVEELFGCGDVNAKASQAGQTALMLAVSHGRIDMVKGLLACGADVNIQDDEGSTALMCASEHGHVEIVKLLLAQPGCNGHLEDNDGSTALSIALEAGHKDIAVLLYAHVNFAKAQSPGTPRLGRKTSPGPTHRGSFD
partner: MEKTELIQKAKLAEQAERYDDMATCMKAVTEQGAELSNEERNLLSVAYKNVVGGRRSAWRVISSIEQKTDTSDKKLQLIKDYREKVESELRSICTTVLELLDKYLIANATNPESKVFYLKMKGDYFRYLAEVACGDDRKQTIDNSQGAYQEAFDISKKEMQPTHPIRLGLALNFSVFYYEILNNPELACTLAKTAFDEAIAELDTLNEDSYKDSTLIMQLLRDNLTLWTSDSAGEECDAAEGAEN
B2: KN motif and ankyrin repeat domain-containing protein 1 (Homo sapiens), Q14678-2 (parent)
chain: B1 chain
B3: KN motif and ankyrin repeat domain-containing protein 1 (Homo sapiens), Q14678-2 (parent)
chain: B1 chain
partner: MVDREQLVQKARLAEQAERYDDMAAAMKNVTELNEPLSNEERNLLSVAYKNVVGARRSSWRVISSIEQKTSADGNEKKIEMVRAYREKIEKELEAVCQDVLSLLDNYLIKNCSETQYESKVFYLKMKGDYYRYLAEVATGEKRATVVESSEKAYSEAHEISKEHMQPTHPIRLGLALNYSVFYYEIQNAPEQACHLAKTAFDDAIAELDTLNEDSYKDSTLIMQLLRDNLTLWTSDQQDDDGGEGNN
B4: KN motif and ankyrin repeat domain-containing protein 1 (Homo sapiens), Q14678-2 (parent)
chain: B1 chain
partner: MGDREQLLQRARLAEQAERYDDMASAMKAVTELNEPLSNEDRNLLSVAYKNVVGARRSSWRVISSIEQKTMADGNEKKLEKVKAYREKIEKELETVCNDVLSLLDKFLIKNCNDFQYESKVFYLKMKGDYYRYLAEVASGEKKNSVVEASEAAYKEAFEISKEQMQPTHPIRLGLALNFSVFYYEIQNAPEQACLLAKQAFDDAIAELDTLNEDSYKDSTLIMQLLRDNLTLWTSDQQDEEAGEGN
B5: KN motif and ankyrin repeat domain-containing protein 1 (Homo sapiens), Q14678-2 (parent)
chain: B1 chain
partner: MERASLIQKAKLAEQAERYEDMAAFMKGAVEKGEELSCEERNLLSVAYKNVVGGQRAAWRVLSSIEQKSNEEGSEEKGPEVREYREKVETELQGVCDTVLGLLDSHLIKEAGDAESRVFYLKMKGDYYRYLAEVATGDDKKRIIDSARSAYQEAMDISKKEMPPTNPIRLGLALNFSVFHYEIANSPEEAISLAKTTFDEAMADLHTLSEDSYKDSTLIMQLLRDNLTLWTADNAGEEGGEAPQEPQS

Variants of: B1
Settings: with 1433t_human YWHAQ

Variant	effect of a mutation on the interaction
S167A	disrupting interaction

Variants of: B2
Settings: with 1433z_human YWHAZ

Variant	effect of a mutation on the interaction
S167A	disrupting interaction

Variants of: B2
Settings: with 1433e_human YWHAE

Variant	effect of a mutation on the interaction
S167A	disrupting interaction

Variants of: B2
Settings: with 1433b_human YWHAB

Variant	effect of a mutation on the interaction
S167A	disrupting interaction

Variants of: B3
Settings: with 1433g_human YWHAG

Variant	effect of a mutation on the interaction
S167A	disrupting interaction

Variants of: B4
Settings: with 1433f_human YWHAH

Variant	effect of a mutation on the interaction
S167A	disrupting interaction

Variants of: B5
Settings: with 1433s_human SFN

Variant	effect of a mutation on the interaction
S167A	disrupting interaction
